For data set [1], the target named is EGFR extracellular domain (Homo sapiens, UniProt P00533). Put plainly: Affinity test by surface plasmon resonance (Biacore T200, CM5 chip). In kind it is binding. The conditions noted are these: for Affinity with the EGFR (in words): compared with rLZ-8; for Dissociation rate constant (koff) / Ka: EGFR extracellular domain coupled on CM5 chip, analyte 4-256 nM. As to the method:
The Biacore™ T200 equipment (a Surface Plasmon Resonance from GE Company) is selected. Through the surface plasma resonance technology, the affinity of the rLZ-8 and the mutants thereof to the EGFR extracellular domain is tested. The CM5 chip is adopted to serve as the affinity test chip.
The EGFR extracellular domain (with an amino acid sequence of 25-645) serves as the ligand for coupling; 1 mg EGFR freeze-dried powders are diluted with HEPES buffer solution to a concentration of 400 μg/mL and set aside. Three 1.5 mL EP tubes are prepared; 10 μL ligand are respectively added into the three tubes, then 90 μL 10 mM sodium acetate with different pH values of 4.5, 5.0 and 5.5 are respectively added into the tubes and are mixed completely and uniformly; and a final concentration of the ligand is 40 μg/mL. Moreover, 200 μL 50 mM sodium acetate is added into another 1.5 mL EP tube.
The ligand has a molecular weight of 70 kDa, the analyte (rLZ-8) has a molecular weight of 12.4 kDa. In theory, one rLZ-8 […] can bind with one EGFR, and thus the stoichiometric ratio Sm is equal to 1. Through the following equations, the coupling amount RL of the ligand is calculated.
Through the experimental experience, the optimal reagent coupling amount is set to be 3*RL, and the coupling amount is set to be 1700 RU. The EGFR extracellular domain is successively coupled on the CM5 chip.
In the affinity test, in order to eliminate the influence of different concentrations on the affinity, every of the rLZ-8 and the mutants thereof are tested with eight concentrations, wherein: seven concentrations are gradient concentrations, and the last one is the test reference concentration.
For orientation: In SPR one partner is held on a chip, and binding of the other changes the refractive index at the surface.

Data set [2] has as its system human lung cancer A549 cells. Put plainly: Orthotopic transplantation tumor model of human lung cancer A549 cells.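 Also: test animals were NOG mice aged 6-8 weeks.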 Conditions: after administration for 28 days.
Description: The human lung cancer A549 cell strain is selected. The NOG Mice of 6-8 weeks old are selected.
The DMEM containing 10% fetal bovine serum is selected for the human lung cancer A549 cells, and then is placed in the CO2 constant-temperature incubator at 37° C. for culturing. The A549 cells at the logarithmic phase are digested by pancreatin and thereafter washed with serum-free DMEM; the living cell concentration is adjusted to 1×10^8 cells per milliliter; 20 μL cell suspension is taken and inoculated at the lung of the NOG mice; two weeks later, the orthotopic transplantation tumor model of A549 lung cancer cells is constructed in the NOG mice.
For data set [3], the system named is human colon cancer SW480 cells. Put plainly: Transplantation tumor model of human colon cancer SW480 cells. In kind it is in vivo, BALB/c nude mice. Conditions: after administration for 28 days.
Description: The RPMI1640 medium containing 10% fetal bovine serum is selected for the human colon cancer SW480 cells, and then is placed in the CO2 constant-temperature incubator at 37° C. for culturing. The SW480 cells at the logarithmic phase are digested by pancreatin and thereafter washed with serum-free RPMI1640 medium; 2×10^6 cells are inoculated below the back skin of the BALB/c nude mice; after the tumor blocks for observation are formed and have the diameter larger than 0.5 cm, the mice are divided into groups randomly; and the transplantation tumor model of human colon cancer SW480 cells are constructed in the BALB/c nude mice.
Data set [4] has as its system human liver cancer Hep G2 cells. The conditions noted are these: for Mice weight after experiment: mouse, in vivo; for Mice tumor weight after experiment / Survival rate of mice after experiment: qd×28 i.v., rLZ-8 and mutants 0.5 mg/kg, sorafenib 50 mg/kg; for Survival rate of mice after experiment: 10 mice per group. The source says:
Two weeks later, the model mice are divided into groups randomly, and each group has 10 mice. The administration method is caudal vein injection, once a day, for consecutive 28 days (qd×28, i.v.). […] During the experiment, if the mouse dies, the dead mouse is weighted on the same day, and the tumor tissue is taken out to be weighted. For the living mouse after administration for 28 days, the mouse is killed, and then the tumor tissue is taken out to be weighted. The death time and death number of the mice in each group are recorded in detail; the survival conditions of the mice of the experimental groups and the control groups are analyzed, and the survival rate is calculated, wherein the survival rate is obtained through subtracting the death number of the mice from the total number of the mice, and then dividing the difference by the total number of the mice.

The test system of data set [5] is human breast cancer MCF7 cells. Put plainly: Orthotopic transplantation tumor model of human breast cancer MCF7 cells. The format is in vivo, BALB/c nude mice. The conditions noted are these: after administration for 28 days. On the procedure:
One day before the experiment, 0.5 mg of 17ß estradiol sustained release tablet is embedded below the neck skin of the BALB/c nude mice.

Substitutions are numbered along the chain they refer to. Names and notes keep the numbering of the source.

B1: FIP-fve: fungai immunomodulatory protein from flammulina velutipes (protein)
chain: SATSLTFQLAYLVKKIDFDYTPNWGRGTPSSYIDNLTFPKVLTDKKYSYRVVVNGSDLGVESNFAVTPSGGQTINFLQYNKGYGVADTKTIQVFVVIPDTGNSEEYIIAEWKKT
Regarding B1, in data set [1], the “Affinity with the EGFR (in words)” value is on record as “does not have the capacity of binding with the EGFR”.

B2: rLZ-8 (R9A): alanine mutant of rLZ-8 at R9 (protein)
chain: MSDTALIFALAWDVKKLSFDYTPNWGRGNPNNFIDTVTFPKVLTDKAYTYRVAVSGRNLGVKPSYAVESDGSQKVNFLEYNSGYGIADTNTIQVFVVDPDTNNDFIIAQWN
Regarding B2, in data set [1], the “Dissociation rate constant (koff)” value was 0.000528 s⁻¹, the Ka was 61200 M⁻¹ s⁻¹ and the “Affinity with the EGFR (in words)” value is reported as “no obvious change”. Moreover, in data set [2], the “Mice survival rate after experiment” value was found to be 50%, the “Mice tumor weight after experiment” value worked out at 0.69 ± 0.53 g and the “Mice weight after experiment” value turned out to be 20.0 ± 1.4 g. Further, the “Mice tumor weight after experiment” value in data set [3] is reported as 1.89 ± 0.37 g. For the same molecule, in data set [4], the “Mice weight after experiment” value was determined as 19.3 ± 1.3 g, the “Mice tumor weight after experiment” value was determined as 0.65 ± 0.43 g and the “Survival rate of mice after experiment” value came to 50%. Besides, in data set [5], the “Mice tumor weight after experiment” value is 0.79 ± 0.31 g.

B3: rLZ-8 (L17K): rLZ-8 mutant after surface potential optimization, L17K (protein)
chain: B2 chain with A9R, L17K
With B3, in data set [1], the “Dissociation rate constant (koff)” value stood at 7.56e-05 s⁻¹ and the Ka stood at 10100 M⁻¹ s⁻¹. Besides, in data set [2], the “Mice survival rate after experiment” value worked out at 70% and the “Mice tumor weight after experiment” value came out at 0.53 ± 0.30 g. Moreover, the “Mice tumor weight after experiment” value in data set [3] is 1.62 ± 0.41 g. In addition, in data set [4], the “Mice weight after experiment” value is 20.1 ± 1.4 g, the “Mice tumor weight after experiment” value was 0.58 ± 0.33 g and the “Survival rate of mice after experiment” value is 70%. Moreover, the “Mice tumor weight after experiment” value in data set [5] is given as 0.63 ± 0.31 g.

B4: rLZ-8 (K46E): rLZ-8 mutant K46E (protein)
chain: B2 chain with A9R, K46E
Turning to B4, in data set [2], the “Mice survival rate after experiment” value is given as 40%, the “Mice tumor weight after experiment” value is recorded as 0.65 ± 0.31 g and the “Mice weight after experiment” value worked out at 20.4 ± 1.6 g. Further, the “Mice tumor weight after experiment” value in data set [3] came to 2.15 ± 0.62 g. Further, in data set [4], the “Mice weight after experiment” value is given as 19.4 ± 1.8 g, the “Mice tumor weight after experiment” value worked out at 0.75 ± 0.44 g and the “Survival rate of mice after experiment” value was determined as 60%. In addition, the “Mice tumor weight after experiment” value in data set [5] is reported as 0.75 ± 0.32 g.

B5: rLZ-8 (D20H): rLZ-8 mutant after surface potential optimization, D20H (protein)
chain: B2 chain with A9R, D20H
For B5, in data set [1], the “Dissociation rate constant (koff)” value was determined as 0.000432 s⁻¹ and the Ka was found to be 58700 M⁻¹ s⁻¹. Moreover, in data set [2], the “Mice survival rate after experiment” value was determined as 70%, the “Mice tumor weight after experiment” value was determined as 0.51 ± 0.32 g and the “Mice weight after experiment” value was 19.9 ± 1.7 g. In addition, the “Mice tumor weight after experiment” value in data set [3] was determined as 1.54 ± 0.45 g. In addition, in data set [4], the “Mice weight after experiment” value is recorded as 19.7 ± 1.7 g, the “Mice tumor weight after experiment” value was 0.60 ± 0.31 g and the “Survival rate of mice after experiment” value stood at 60%. Further, the “Mice tumor weight after experiment” value in data set [5] was found to be 0.61 ± 0.22 g.

B6: rLZ-8 (K41D/K46E/K74E): rLZ-8 mutant K41D, K46E and K74E (protein)
chain: B2 chain with A9R, K41D, K46E, K74E
With B6, in data set [1], the Ka amounted to 35300 M⁻¹ s⁻¹ and the “Affinity with the EGFR (in words)” value is recorded as “decreased”. Besides, in data set [2], the “Mice survival rate after experiment” value was 40%, the “Mice tumor weight after experiment” value was found to be 1.20 ± 0.62 g and the “Mice weight after experiment” value is 19.1 ± 1.3 g. Also, the “Mice tumor weight after experiment” value in data set [3] stood at 3.10 ± 0.48 g. Further, in data set [4], the “Mice weight after experiment” value turned out to be 20.0 ± 1.2 g, the “Mice tumor weight after experiment” value was determined as 1.25 ± 0.53 g and the “Survival rate of mice after experiment” value stood at 40%. In data set [5], the “Mice tumor weight after experiment” value came to 1.10 ± 0.42 g.

B7: rLZ-8 (K46E/K74E): rLZ-8 mutant K46E and K74E (protein)
chain: B2 chain with A9R, K46E, K74E
On to B7, for which, in data set [1], the “Dissociation rate constant (koff)” value is 0.000614 s⁻¹ and the Ka was found to be 65700 M⁻¹ s⁻¹. For the same molecule, in data set [2], the “Mice survival rate after experiment” value is listed as 50%, the “Mice tumor weight after experiment” value is on record as 0.63 ± 0.41 g and the “Mice weight after experiment” value came to 20.0 ± 1.5 g. Moreover, the “Mice tumor weight after experiment” value in data set [3] was found to be 2.23 ± 0.54 g. Moreover, in data set [4], the “Mice weight after experiment” value came to 20.1 ± 1.7 g, the “Mice tumor weight after experiment” value turned out to be 0.69 ± 0.42 g and the “Survival rate of mice after experiment” value was 60%. The “Mice tumor weight after experiment” value in data set [5] is given as 0.73 ± 0.24 g.

B8: rLZ-8 (D20H/D70K): rLZ-8 mutant after surface potential optimization, D20H and D70K (protein)
chain: B2 chain with A9R, D20H, D70K
B8: in data set [2], the “Mice survival rate after experiment” value is recorded as 70%, the “Mice tumor weight after experiment” value is 0.49 ± 0.28 g and the “Mice weight after experiment” value is 20.6 ± 1.7 g. Further, the “Mice tumor weight after experiment” value in data set [3] is listed as 1.60 ± 0.29 g. Further, in data set [4], the “Mice weight after experiment” value is recorded as 20.1 ± 1.5 g, the “Mice tumor weight after experiment” value is 0.51 ± 0.27 g and the “Survival rate of mice after experiment” value turned out to be 70%. Moreover, the “Mice tumor weight after experiment” value in data set [5] amounted to 0.60 ± 0.27 g.

B9: rLZ-8 (M1A/R9A/D100A): rLZ-8 mutant named only in Tables 2, 3, 7 and 8 (protein)
chain: B2 chain with M1A, D100A
Take B9: the “Mice tumor weight after experiment” value is 1.97 ± 0.35 g in data set [3], 0.78 ± 0.67 g in data set [4] and 0.77 ± 0.32 g in data set [5]. In addition, the “Survival rate of mice after experiment” value in data set [4] was determined as 60%.

Values taken from US12077566B2, “Mutants of recombinant immunoregulatory protein of Ganoderma lucidum and applications thereof” (priority 2017, dated 2024).
